The target of the experiment is 9-strain panel of authentic SARS-CoV-2 viral isolates. Kind of experiment: cell-based or functional assay.

B1: S2V29-v37.2 (antibody, V domains shown)
VH: EVQLVESGGSVVQPGRALRLSCAASGITFSSFGMYWVRQAPGKGLEWLGYIAYDGSDTYYADSVKGRFTISRDNSKNTLYLQMNSLRIEDTAVYYCAKDYYPLLSYYYGLDVWGQGTTVTVSS
VL: QSVLTQPRSVSGSPGQSVTISCTGTSSDVGAYNYVSWYQQHPGKAPKFMIYDVDQRPSGVPDRFSGSKSGNTASLIISGLQAEDEADYYCSSYAGSYIWVFGGGTQLTVL
B1 showed an IC50, authentic virus neutralization of 1.3 to 9.6 ng/mL and a median IC50, authentic virus neutralization of 2 ng/mL.

These data come from patent US20260274928A1.
